Assay [1] concerns the target [5F]FFR-[Lys]Pg ([Lys]plasminogen inactivated with ATA-FFR-CH2Cl and labeled with 5-(iodoacetamido)fluorescein) (human). Nature of the assay: other fluorescence titration.
Assay [2] deals with [Lys]plasminogen (human). Nature of the assay: steady-state kinetics of Pg activation.
The target in assay [3] is [5F]FFR-[Lys]Pg ([Lys]plasminogen inactivated with ATA-FFR-CH2Cl and labeled with 5-(iodoacetamido)fluorescein) (human). In words: other fluorescence titration. The source holds these as a separate data set.
The target of assay [4] is [Lys]plasminogen (human). Nature of the assay: steady-state kinetics of Pg activation. This is another data set of the same source.

Like-named read-outs stand apart in the source and are kept apart here.

[Lys]plasminogen (human), sequence (P00747 whole entry): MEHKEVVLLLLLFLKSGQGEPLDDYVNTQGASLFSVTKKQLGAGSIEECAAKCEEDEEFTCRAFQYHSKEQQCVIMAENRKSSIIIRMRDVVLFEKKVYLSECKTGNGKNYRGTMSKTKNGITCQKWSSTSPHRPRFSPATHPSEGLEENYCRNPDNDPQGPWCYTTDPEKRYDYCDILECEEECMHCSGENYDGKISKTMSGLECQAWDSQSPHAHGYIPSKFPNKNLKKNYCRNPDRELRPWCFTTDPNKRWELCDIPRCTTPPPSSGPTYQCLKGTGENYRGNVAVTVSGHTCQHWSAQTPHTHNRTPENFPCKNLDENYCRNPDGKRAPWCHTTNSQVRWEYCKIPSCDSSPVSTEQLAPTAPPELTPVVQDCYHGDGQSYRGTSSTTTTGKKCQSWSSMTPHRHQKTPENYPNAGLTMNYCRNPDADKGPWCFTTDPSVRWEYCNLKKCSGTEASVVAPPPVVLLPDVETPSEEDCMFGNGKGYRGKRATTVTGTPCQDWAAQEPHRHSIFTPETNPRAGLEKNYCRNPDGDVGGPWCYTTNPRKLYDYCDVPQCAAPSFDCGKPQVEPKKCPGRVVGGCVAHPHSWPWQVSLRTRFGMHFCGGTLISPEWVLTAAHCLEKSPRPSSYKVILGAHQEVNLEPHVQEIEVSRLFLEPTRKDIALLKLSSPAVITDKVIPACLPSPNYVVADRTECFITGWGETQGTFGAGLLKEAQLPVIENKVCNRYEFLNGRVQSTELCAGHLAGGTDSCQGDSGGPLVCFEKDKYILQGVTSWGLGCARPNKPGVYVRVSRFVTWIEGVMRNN
[5F]FFR-[Lys]Pg ([Lys]plasminogen inactivated with ATA-FFR-CH2Cl and labeled with 5-(iodoacetamido)fluorescein) (human), sequence (P00747 whole entry): as above

Usually Kd stands for a measure of binding affinity in units of concentration. A lower Kd goes with higher affinity. With “wtSK-His6 (TEVp-cleaved His6-wtSK-His6) (from UniProt P00779 27-440) (natural protein)”, the Kd in assay [1] is 290 nM; in assay [2], 32 nM; in assay [3], 240 nM.
In the case of “SKΔ(R253-L260)ΔK414-His6 (TEVp-cleaved His6-(TEVp cleavage site)-SKΔ(R253-L260)ΔK414-His6) (from UniProt P00779 27-440) (natural protein)”, the results for the Kd in assay [1], in assay [4] and in assay [3] were 820 nM, 28 nM and 470 nM, respectively.
In turn, “SKΔ(R253-L260) (from UniProt P00779 27-440) (natural protein)” yielded a Kd in assay [2] of 78 nM.
“Native streptokinase (from UniProt P00779 27-440) (natural protein)” had a Kd in assay [4] of 1.6 nM.
With “recombinant wild-type streptokinase (from UniProt P00779 27-440) (natural protein)”, the Kd is 1.6 nM in assay [4] and 33 nM in assay [2].
